pKi: −log10 of the molar value. Numbered stars: 1 amine (or outer) side, 2 acyl side, 3 side chain; on linkers, the order of the positions; unused ones are H or OH. Square brackets hold non-standard residues; d marks the D form. Peptide text beside a SMILES is read from it. * marks the point of attachment. Ppd = 4-phenylpiperidine-4-carboxylic acid, O=C(C1(c2ccccc2)CCN([*:1])CC1)[*:2]; Phe(4-NO2) = N[C@@H](Cc1ccc([N+](=O)[O-])cc1)C(=O)O; Tpi = O=C(O)[C@@H]1Cc2c([nH]c3ccccc23)CN1; X1 = N=C(N)NC[C@H]1CC[C@H](C(=O)*)CC1; hArg = N=C(N)NCCCC[C@H](N)C(=O)O; Tic = O=C(O)[C@@H]1Cc2ccccc2CN1; Cha = N[C@@H](CC1CCCCC1)C(=O)O; dCha = N[C@H](CC1CCCCC1)C(=O)O; Phg = N[C@H](C(=O)O)c1ccccc1; Dcp = dichlorophenylalanine; Nle = CCCC[C@H](N)C(=O)O; Aze = O=C(O)[C@@H]1CCN1; Tea = thienylalanine
molecular target: thrombin (Homo sapiens, UniProt P00734); test: in-vitro inhibition of the amidase activity of thrombin (fluorogenic substrate Tos-Gly-Pro-Arg-AMC); type: biochemical; set-up: 10 μl of human thrombin solution; details: not given
Experimental: The values of the inhibiting constants Ki were obtained from assays in which thrombin hydrolyzes the fluorogenic substrate Tos-Gly-Pro-Arg-(7-amino-4-methylcumarin). The assays were carried out in […] of assay buffer (0.05 M tris, 0.1 M NaCl, 0.1% PEG 8000, pH 7.6) with 10 μl of human thrombin solution (10^−5 U/μl in the assay buffer) and 140 μl of a solution of the fluorogenic substrate in an assay buffer at a concentration of 30 μM. Solutions of the test compound (10 μl) were added at various concentrations. The rates of the hydrolysis of the substrate were measured by monitoring the reactions at […] of the release of 7-amino-4-methylcumarin using AMC. The reaction reached an equilibrium state within three minutes, after thrombin, the substrate, and an inhibitor were mixed. The kinetic data of the competing inhibition (Km, Vmax, and Ki) were analyzed by means of the representation according to Hanes (A/V against A at various values of A, where A is the substrate concentration and V the reaction rate).

| Compound | pKi |
| --- | --- |
| N=C(N)NCCCC[C@H](NC(=O)[C@@H](Cc1ccc(O)cc1)NC(=O)[C@@H]1CCN1C(=O)[C@@H](CC1CCCCC1)NC(=O)[C@H]1CC[C@H](CNC(=N)N)CC1)C(N)=O [Example 31, Trans-4-(guanidinomethyl)cyclohexanecarboxylic acid-D-Cha-L-Aze-D-Try-L-Har amide] (X1-[dCha][Aze][dY][hArg]-NH2) | 8.52 |

same assay, conditions: peptide concentration of 250 nM

| Compound | inhibition of the amidase activity of the thrombin [%] |
| --- | --- |
| N-acetyl-D-Phe-D-Cha-L-Aze-D-Tyr-L-Har amide (Ac-[dF][dCha][Aze][dY][hArg]-NH2; SMILES CC(=O)N[C@H](Cc1ccccc1)C(=O)N[C@H](CC1CCCCC1)C(=O)N1CC[C@H]1C(=O)N[C@H](Cc1ccc(O)cc1)C(=O)N[C@@H](CCCCNC(=N)N)C(N)=O) [Example 20] | 77 |
| N-acetyl-L-Ala-D-Cha-L-Aze-D-Tyr-L-Har amide (Ac-A[dCha][Aze][dY][hArg]-NH2; SMILES CC(=O)N[C@@H](C)C(=O)N[C@H](CC1CCCCC1)C(=O)N1CC[C@H]1C(=O)N[C@H](Cc1ccc(O)cc1)C(=O)N[C@@H](CCCCNC(=N)N)C(N)=O) [Example 19] | 77 |
| N-acetyl-L-Cha-D-Cha-L-Aze-D-Tyr-L-Har amide (Ac-[Cha][dCha][Aze][dY][hArg]-NH2) [Example 28] | 90 |
| N-acetyl-L-Dcp-D-Cha-L-Aze-D-Tyr-L-Har amide (Ac-[Dcp][dCha][Aze][dY][hArg]-NH2) [Example 21] | 75 |
| N-acetyl-L-Iq3-D-Cha-L-Aze-D-Tyr-L-Har amide (Ac-[Tic][dCha][Aze][dY][hArg]-NH2) [Example 23] | 72 |
| N-acetyl-L-Nhm-D-Cha-L-Aze-D-Tyr-L-Har amide (Ac-[Tpi][dCha][Aze][dY][hArg]-NH2; SMILES CC(=O)N1Cc2[nH]c3ccccc3c2C[C@H]1C(=O)N[C@H](CC1CCCCC1)C(=O)N1CC[C@H]1C(=O)N[C@H](Cc1ccc(O)cc1)C(=O)N[C@@H](CCCCNC(=N)N)C(N)=O) [Example 22] | 80 |
| N-acetyl-L-Nle-D-Cha-L-Aze-D-Tyr-L-Har amide (Ac-[Nle][dCha][Aze][dY][hArg]-NH2; SMILES CCCC[C@H](NC(C)=O)C(=O)N[C@H](CC1CCCCC1)C(=O)N1CC[C@H]1C(=O)N[C@H](Cc1ccc(O)cc1)C(=O)N[C@@H](CCCCNC(=N)N)C(N)=O) [Example 27] | 89 |
| N-acetyl-L-Phg-D-Cha-L-Aze-D-Tyr-L-Har amide (Ac-[Phg][dCha][Aze][dY][hArg]-NH2) [Example 26] | 95 |
| N-acetyl-L-Pnp-D-Cha-L-Aze-D-Tyr-L-Har amide (Ac-[Phe(4-NO2)][dCha][Aze][dY][hArg]-NH2; SMILES CC(=O)N[C@@H](Cc1ccc([N+](=O)[O-])cc1)C(=O)N[C@H](CC1CCCCC1)C(=O)N1CC[C@H]1C(=O)N[C@H](Cc1ccc(O)cc1)C(=O)N[C@@H](CCCCNC(=N)N)C(N)=O) [Example 29] | 72 |
| N-acetyl-L-Ppd-D-Cha-L-Aze-D-Tyr-L-Har amide (Ac-[Ppd][dCha][Aze][dY][hArg]-NH2) [Example 24] | 76 |
| N-acetyl-L-Tea-D-Cha-L-Aze-D-Tyr-L-Har amide (Ac-[Tea][dCha][Aze][dY][hArg]-NH2) [Example 25] | 74 |
| N-acetyl-L-Trp-D-Cha-L-Aze-D-Tyr-L-Har amide (Ac-W[dCha][Aze][dY][hArg]-NH2; SMILES CC(=O)N[C@@H](Cc1c[nH]c2ccccc12)C(=O)N[C@H](CC1CCCCC1)C(=O)N1CC[C@H]1C(=O)N[C@H](Cc1ccc(O)cc1)C(=O)N[C@@H](CCCCNC(=N)N)C(N)=O) [Example 18] | 76 |

same assay, conditions: peptide concentration of 1 μM

| Compound | inhibition of the amidase activity of the thrombin [%] |
| --- | --- |
| N-acetyl-D-Gln-D-His-L-Cha-D-Pro-D-Tyr-L-Arg amide (Ac-[dQ][dH][Cha][dP][dY]R-NH2; SMILES CC(=O)N[C@H](CCC(N)=O)C(=O)N[C@H](Cc1c[nH]cn1)C(=O)N[C@@H](CC1CCCCC1)C(=O)N1CCC[C@@H]1C(=O)N[C@H](Cc1ccc(O)cc1)C(=O)N[C@@H](CCCNC(=N)N)C(N)=O) [Example 1] | 59 |
| N-acetyl-D-Glu-L-Cha-D-Pro-D-Tyr-L-Arg amide (Ac-[dE][Cha][dP][dY]R-NH2; SMILES CC(=O)N[C@H](CCC(=O)O)C(=O)N[C@@H](CC1CCCCC1)C(=O)N1CCC[C@@H]1C(=O)N[C@H](Cc1ccc(O)cc1)C(=O)N[C@@H](CCCNC(=N)N)C(N)=O) [Example 2] | 58 |
| N-acetyl-D-Lys-L-Nle-L-Cha-D-Pro-D-Tyr-L-Arg amide (Ac-[dK][Nle][Cha][dP][dY]R-NH2; SMILES CCCC[C@H](NC(=O)[C@@H](CCCCN)NC(C)=O)C(=O)N[C@@H](CC1CCCCC1)C(=O)N1CCC[C@@H]1C(=O)N[C@H](Cc1ccc(O)cc1)C(=O)N[C@@H](CCCNC(=N)N)C(N)=O) [Example 12] | 48 |
| N-acetyl-D-Tyr-L-Cha-D-Pro-D-Tyr-L-Arg amide (Ac-[dY][Cha][dP][dY]R-NH2; SMILES CC(=O)N[C@H](Cc1ccc(O)cc1)C(=O)N[C@@H](CC1CCCCC1)C(=O)N1CCC[C@@H]1C(=O)N[C@H](Cc1ccc(O)cc1)C(=O)N[C@@H](CCCNC(=N)N)C(N)=O) [Example 13] | 47 |
| N-acetyl-D-Val-D-His-L-Cha-D-Pro-D-Tyr-L-Arg amide (Ac-[dV][dH][Cha][dP][dY]R-NH2; SMILES CC(=O)N[C@@H](C(=O)N[C@H](Cc1c[nH]cn1)C(=O)N[C@@H](CC1CCCCC1)C(=O)N1CCC[C@@H]1C(=O)N[C@H](Cc1ccc(O)cc1)C(=O)N[C@@H](CCCNC(=N)N)C(N)=O)C(C)C) [Example 3] | 51 |
| N-acetyl-D-Val-L-Cha-D-Pro-D-Tyr-L-Arg amide (Ac-[dV][Cha][dP][dY]R-NH2; SMILES CC(=O)N[C@@H](C(=O)N[C@@H](CC1CCCCC1)C(=O)N1CCC[C@@H]1C(=O)N[C@H](Cc1ccc(O)cc1)C(=O)N[C@@H](CCCNC(=N)N)C(N)=O)C(C)C) [Example 8] | 45 |
| N-acetyl-L-Ala-D-Cha-L-Aze-D-Tyr-L-Arg amide (Ac-A[dCha][Aze][dY]R-NH2; SMILES CC(=O)N[C@@H](C)C(=O)N[C@H](CC1CCCCC1)C(=O)N1CC[C@H]1C(=O)N[C@H](Cc1ccc(O)cc1)C(=O)N[C@@H](CCCNC(=N)N)C(N)=O) [Example 16] | 63 |
| N-acetyl-L-Ala-D-Cha-L-Pro-D-Tyr-L-Har amide (Ac-A[dCha]P[dY][hArg]-NH2; SMILES CC(=O)N[C@@H](C)C(=O)N[C@H](CC1CCCCC1)C(=O)N1CCC[C@H]1C(=O)N[C@H](Cc1ccc(O)cc1)C(=O)N[C@@H](CCCCNC(=N)N)C(N)=O) [Example 17] | 56 |
| N-acetyl-L-Ala-L-Cha-D-Pro-D-Tyr-L-Arg amide (Ac-A[Cha][dP][dY]R-NH2; SMILES CC(=O)N[C@@H](C)C(=O)N[C@@H](CC1CCCCC1)C(=O)N1CCC[C@@H]1C(=O)N[C@H](Cc1ccc(O)cc1)C(=O)N[C@@H](CCCNC(=N)N)C(N)=O) [Example 4] | 44 |
| N-acetyl-L-Arg-L-Cha-D-Pro-D-Tyr-L-Arg amide (Ac-R[Cha][dP][dY]R-NH2; SMILES CC(=O)N[C@@H](CCCNC(=N)N)C(=O)N[C@@H](CC1CCCCC1)C(=O)N1CCC[C@@H]1C(=O)N[C@H](Cc1ccc(O)cc1)C(=O)N[C@@H](CCCNC(=N)N)C(N)=O) [Example 14] | 47 |
| N-acetyl-L-Ile-L-Arg-L-Cha-D-Pro-D-Tyr-L-Arg amide (Ac-IR[Cha][dP][dY]R-NH2; SMILES CC[C@H](C)[C@H](NC(C)=O)C(=O)N[C@@H](CCCNC(=N)N)C(=O)N[C@@H](CC1CCCCC1)C(=O)N1CCC[C@@H]1C(=O)N[C@H](Cc1ccc(O)cc1)C(=O)N[C@@H](CCCNC(=N)N)C(N)=O) [Example 5] | 61 |
| N-acetyl-L-Ser-L-Ala-L-Cha-D-Pro-D-Tyr-L-Arg amide (Ac-SA[Cha][dP][dY]R-NH2; SMILES CC(=O)N[C@@H](CO)C(=O)N[C@@H](C)C(=O)N[C@@H](CC1CCCCC1)C(=O)N1CCC[C@@H]1C(=O)N[C@H](Cc1ccc(O)cc1)C(=O)N[C@@H](CCCNC(=N)N)C(N)=O) [Example 10] | 47 |
| N-acetyl-L-Ser-L-Arg-L-Cha-D-Pro-D-Tyr-L-Arg amide (Ac-SR[Cha][dP][dY]R-NH2; SMILES CC(=O)N[C@@H](CO)C(=O)N[C@@H](CCCNC(=N)N)C(=O)N[C@@H](CC1CCCCC1)C(=O)N1CCC[C@@H]1C(=O)N[C@H](Cc1ccc(O)cc1)C(=O)N[C@@H](CCCNC(=N)N)C(N)=O) [Example 11] | 51 |
| N-acetyl-L-Ser-L-Ser-L-Cha-D-Pro-D-Tyr-L-Arg amide (Ac-SS[Cha][dP][dY]R-NH2; SMILES CC(=O)N[C@@H](CO)C(=O)N[C@@H](CO)C(=O)N[C@@H](CC1CCCCC1)C(=O)N1CCC[C@@H]1C(=O)N[C@H](Cc1ccc(O)cc1)C(=O)N[C@@H](CCCNC(=N)N)C(N)=O) [Example 7] | 40 |
| N-acetyl-L-Trp-L-Cha-D-Pro-D-Tyr-L-Arg amide (Ac-W[Cha][dP][dY]R-NH2; SMILES CC(=O)N[C@@H](Cc1c[nH]c2ccccc12)C(=O)N[C@@H](CC1CCCCC1)C(=O)N1CCC[C@@H]1C(=O)N[C@H](Cc1ccc(O)cc1)C(=O)N[C@@H](CCCNC(=N)N)C(N)=O) [Example 9] | 63 |

From patent US7423021B2, “Peptidic thrombin inhibitors” (NSCI Novel Science International GmbH, priority 2003, dated 2008)
